The target in assay [1] is T1, Soluble IGF-1R (sIGF-1R), R&D Systems Cat. # 391-GR/CF (UniProt P08069 31-935, limits assumed).
T1 construct: extracellular domain
As to the kind of experiment: phage ELISA.

The target of assay [2] is T2, soluble human insulin receptor-immunoglobulin heavy chain chimera (sIR-Fc; Bass et al., 1996) (human, UniProt P06213 28-956, limits assumed).
T2 construct: extracellular domain; also called soluble IR (Bass construct); not shown: immunoglobulin heavy chain constant domains
As to the kind of experiment: phage ELISA. (ELISA stands for enzyme-linked immunosorbent assay.)

Data on 13 molecules can be found in patent publication US20070265189A1 (published 2007).

Turning to VERSASSQDGNFYDWFVVQIR [A6S-2-D1-IR], in assay [1], the IGF-1R/IR comparison was 2.6 and the “Ratio over Background” value came out at 30.6. For the same molecule, in assay [2], the IR/IGF-1R comparison turned out to be 0.4 and the “Ratio over Background” value came out at 12.

For YRGMLVLGRISGGAGKAASERPARIGQKVSAVNFYDWFV [A6L-0-H3-IR], in assay [1], the IGF-1R/IR comparison was determined as 13 and the “Ratio over Background” value was determined as 26.

In the case of TSEVQRRSQDNFYDWFVAQVA [A6S-3-E2-IR], in assay [1], the IGF-1R/IR comparison was determined as 2.5 and the “Ratio over Background” value is 24.7. In assay [2], the IR/IGF-1R comparison is 0.4 and the “Ratio over Background” value was found to be 9.8.

Consider GFREGSFYDWFQAQVT [E4Dα-2-D11-IR], for which, in assay [1], the IGF-1R/IR comparison worked out at 3.4 and the “Ratio over Background” value is 11.1. For the same molecule, in assay [2], the IR/IGF-1R comparison came out at 0.3 and the “Ratio over Background” value is 3.3.

HLADGQFHEKFYDWFERQISSRCNDC [H2CA-3-E11-IGFR]: in assay [1], the IGF-1R/IR comparison was 2.2 and the “Ratio over Background” value turned out to be 2.2. In assay [2], the IR/IGF-1R comparison was determined as 0.5 and the “Ratio over Background” value is 1.

As for YRGMLVLGRSSDGAGKVAFERPARIGQTVFAVNFYDWFV [A6L-0-E6-IR], in assay [1], the IGF-1R/IR comparison was determined as 17 and the “Ratio over Background” value stood at 31. In assay [2], the IR/IGF-1R comparison came out at 0.1 and the “Ratio over Background” value amounted to 1.8.

On to VGRASGFPENFYDWFGRQLSLQSGEQ [H2CA-4-H6-IGFR], for which, in assay [1], the IGF-1R/IR comparison worked out at 14.6 and the “Ratio over Background” value came out at 10.5. Besides, in assay [2], the IR/IGF-1R comparison stood at 0.1 and the “Ratio over Background” value amounted to 0.7.

As for GAPVDQLHEDFYDWFVRQVSQAATG [H2CA-2-B2-IGFR], in assay [1], the IGF-1R/IR comparison was 3.5 and the “Ratio over Background” value was determined as 3.4. In assay [2], the IR/IGF-1R comparison was found to be 0.3 and the “Ratio over Background” value turned out to be 1.

As to EAASLGSQDRNFYDWFVRQVV [A6S-2-D11-IR], in assay [1], the IGF-1R/IR comparison was 2.8 and the “Ratio over Background” value is 37.4. Moreover, in assay [2], the IR/IGF-1R comparison was 0.4 and the “Ratio over Background” value amounted to 13.5.

Take SQAGSAFYAWFDQVLRTVHSA [20E2Bβ-4-G6-IR]: in assay [1], the IGF-1R/IR comparison was 3.3 and the “Ratio over Background” value amounted to 6.2. In assay [2], the IR/IGF-1R comparison stood at 0.3 and the “Ratio over Background” value stood at 1.9.

Turning to AICDAGFHEHFYDWFALQVSDCGRQS [H2CA-2-B11-IGFR], in assay [1], the IGF-1R/IR comparison turned out to be 3 and the “Ratio over Background” value was 4.6. Moreover, in assay [2], the IR/IGF-1R comparison was determined as 0.3 and the “Ratio over Background” value was determined as 1.6.

Regarding LGYQEPFQQNFYDWFVRQVSGAENAG [H2CA-3-E8-IGFR], in assay [1], the IGF-1R/IR comparison was found to be 2.9 and the “Ratio over Background” value came out at 6.3. In assay [2], the IR/IGF-1R comparison is 0.3 and the “Ratio over Background” value worked out at 2.2.

RGAVAGFHDQFYDWFDRQVSRVHKFG [H2CA-4-H9-IGFR]: in assay [1], the IGF-1R/IR comparison was 3 and the “Ratio over Background” value stood at 5.6.
